{
  "source": "paper PMC4132020",
  "biological_target": "Sso7d-IN with an 11 glycine linker (Sulfolobus solfataricus chromosomal protein Sso7d fused to the N-terminus of HIV-1 integrase) (Sulfolobus solfataricus | HIV-1)",
  "test": "SEC; Superdex 200 PC 3.2/30, 20 mM HEPES pH 7.5, 20% glycerol, 5 mM DTT, 500 mM NaCl; free protein peak of a scaled-up intasome assembly mixture (with U5-25 DNA, CaCl2, 4 µM ZnCl2) after addition of 500 mM NaCl; position relative to protein standards",
  "data": [
    {"substance": "Sso7d-IN with an 11 glycine linker (Sulfolobus solfataricus chromosomal protein Sso7d fused to the N-terminus of HIV-1 integrase) (enzyme)", "values": [
      {"measurement": "stoichiometry N", "value": 4}
    ]}
  ]
}
